Measured values reported in patent publication US20040166544A1 (published 2004).
Substitutions are numbered along the chain they refer to. Values joined by “and” are separate entries in the source; they are usually repeats but may differ in a detail not shown here. Identical values can stand only once.

B1: c-Met IgG antibody 11978 (antibody, V domains shown)
VH: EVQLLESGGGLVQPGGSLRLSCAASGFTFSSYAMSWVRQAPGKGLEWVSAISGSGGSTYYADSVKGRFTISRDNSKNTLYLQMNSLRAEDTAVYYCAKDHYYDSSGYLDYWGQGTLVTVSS
VL: NFMLTQPHSVSESPGKTVTISCTRSSGSIAFDYVQWYQQRPGSAPTTVIYEDNQRPSGVPDRFSASIDSSSNSASLTISALKTEDEADYYCQSYDNSNSWVFGGGTKLTVLG
notes: IgG of scFv PGIA-1-A8; also called IgG of scFv PGIA-01-A8 (PGIA-1-A8)
B2: c-Met IgG antibody 12075 (antibody, V domains shown)
VH: QVQLVQSGPEVKKPGASVEVSCKASGYTFTGDYMHWVRQAPGQGPEWMGWINPQTGVTKYAQKFQGRVTMARDTSINTAYMELRGLRSDDTAVYYCVREDHNYDLWSAYNGLDVWGQGTLVTVSS
VL: QSVLTQPPSVSAAPGQKVTISCSGSSSNIGNNHVSWYQQLAGTAPKLLIFDNDKRPSGIPDRFSGSKSGTSATLGITGLQTGDEADYYCGTWDKSPTDIYVFGSGTKLTVLG
notes: IgG of scFv PGIA-3-A11; also called 12075 IgG; IgG of scFv PGIA-03-A11 (PGIA-3-A11)
B3: c-Met IgG antibody 12119 (antibody, V domains shown)
VH: QLQLQESGPGLVKPSGTLSLTCAVSGGSISTSDWWSWVRRPPGKGLEWIGEIYHSGSTNYHPSLKSRVTISLDKSKNQFSLKLSSVTAADTAVYYCAREGGHSGSYPLDYWGRGTLVTVSS
VL: NFMLTQPHSVSESPGKTVTISCARSSGSIASNYVQWYQQRPGSSPTTLIYEDRQRPSGVPDRFSGSIDSSSNSASLTISGLKTEDEADYYCQSYDSSDHVVFGGGTKLTVLG
notes: IgG of scFv PGIA-5-A1; also called 12119 IgG; IgG of scFv PGIA-05-A1 (PGIA-5-A1)
B4: c-Met 11994 Fab (Fab, V domains shown)
VH: B3 VH with L2V, R113K
VL: NFMLTQPHSVSESPGKTVTISCTRSSGSIASNYVQWYQQRPGSSPTTVIYEDNQRPSGVPDRFSGSIDSSSNSASLTISGLKTEDEADYYCQSYDSSNQGVVFGGGTKLTVLG
notes: VH and VL limits counted as for the IgG; also called 11994-50; Fab fragment derived from c-Met antibody 11994
B5: NK4-Elastase (ligand, UniProt P14210 32-478, looked up)
chain: QRKRRNTIHEFKKSAKTTLIKIDPALKIKTKKVNTADQCANRCTRNKGLPFTCKAFVFDKARKQCLWFPFNSMSSGVKKEFGHEFDLYENKDYIRNCIIGKGRSYKGTVSITKSGIKCQPWSSMIPHEHSFLPSSYRGKDLQENYCRNPRGEEGGPWCFTSNPEVRYEVCDIPQCSEVECMTCNGESYRGLMDHTESGKICQRWDHQTPHRHKFLPERYPDKGFDDNYCRNPDGQPRPWCYTLDPHTRWEYCAIKTCADNTMNDTDVPLETTECIQGQGEGYRGTVNTIWNGIPCQRWDSQYPHEHDMTPENFKCKDLRENYCRNPDGSESPWCFTTDPNIRVGYCSQIPNCDMSHGQDCYRGNGKNYMGNLSQTRSGLTCSMWDKNMEDLHRHIFWEPDASKLNENYCRNPDDDAHGPWCYTGNPLIPWDYCPISRCEGDTTPTIV
notes: domain: kringle to kringle 4 fragment
B6: NK4-6His (recombinant NK4, CHO DG44/pPHA27965) (ligand)
chain: QRKRRNTIHEFKKSAKTTLIKIDPALKIKTKKVNTADQCANRCTRNKGLPFTCKAFVFDKARKQCLWFPFNSMSSGVKKEFGHEFDLYENKDYIRNCIIGKGRSYKGTVSITKSGIKCQPWSSMIPHEHSFLPSSYRGKDLQENYCRNPRGEEGGPWCFTSNPEVRYEVCDIPQCSEVECMTCNGESYRGLMDHTESGKICQRWDHQTPHRHKFLPERYPDKGFDDNYCRNPDGQPRPWCYTLDPHTRWEYCAIKTCADNTMNDTDVPLETTECIQGQGEGYRGTVNTIWNGIPCQRWDSQYPHEHDMTPENFKCKDLRENYCRNPDGSESPWCFTTDPNIRVGYCSQIPNCDMSHGQDCYRGNGKNYMGNLSQTRSGLTCSMWDKNMEDLHRHIFWEPDASKLNENYCRNPDDDAHGPWCYTGNPLIPWDYCPISRCEGDTTPTIVHHHHHH
notes: domain: NK4; also called NK4-His

Tests used:
[1] = target: T1, c-Met/Fc Chimera (R&D Systems, catalog # 358-MT-100) (human, UniProt P08581 25-932); assay: europium (DELFIA) ligand competition ELISA: biotinylated HGF binding to plate-coated c-Met/Fc Chimera, antibody titrated
T1 construct: extracellular domain; Bought reagent; also called human c-Met-Fc fusion protein; recombinant c-Met protein; Fc part of the bought chimera not given
T1 sequence (P08581 25-932, stated change not applied): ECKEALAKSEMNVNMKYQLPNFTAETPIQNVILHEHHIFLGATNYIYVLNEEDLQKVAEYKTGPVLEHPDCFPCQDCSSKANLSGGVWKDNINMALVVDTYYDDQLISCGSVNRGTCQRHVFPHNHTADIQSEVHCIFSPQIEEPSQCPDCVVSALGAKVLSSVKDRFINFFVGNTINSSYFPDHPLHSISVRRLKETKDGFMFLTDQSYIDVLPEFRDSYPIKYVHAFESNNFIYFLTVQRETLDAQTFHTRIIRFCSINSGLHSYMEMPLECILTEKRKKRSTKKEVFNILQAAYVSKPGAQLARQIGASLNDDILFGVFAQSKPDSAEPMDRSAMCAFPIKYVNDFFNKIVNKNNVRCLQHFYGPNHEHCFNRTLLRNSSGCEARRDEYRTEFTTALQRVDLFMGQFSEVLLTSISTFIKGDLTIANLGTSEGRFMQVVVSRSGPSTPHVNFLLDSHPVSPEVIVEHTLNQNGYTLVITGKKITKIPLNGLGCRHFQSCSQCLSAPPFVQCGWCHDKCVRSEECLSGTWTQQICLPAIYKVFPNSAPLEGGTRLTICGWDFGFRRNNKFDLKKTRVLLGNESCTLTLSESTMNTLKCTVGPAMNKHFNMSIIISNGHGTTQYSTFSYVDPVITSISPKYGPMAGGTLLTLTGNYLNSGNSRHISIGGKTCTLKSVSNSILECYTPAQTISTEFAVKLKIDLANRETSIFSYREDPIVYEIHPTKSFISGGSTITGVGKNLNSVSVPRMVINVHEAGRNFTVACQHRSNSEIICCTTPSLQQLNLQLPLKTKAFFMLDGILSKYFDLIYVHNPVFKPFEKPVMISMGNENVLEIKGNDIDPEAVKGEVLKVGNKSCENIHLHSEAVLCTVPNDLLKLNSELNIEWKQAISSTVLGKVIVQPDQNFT
Description: (§1) 96-well Fluoronunc plates were coated with 50 ul of 0.5 ug/ml c-Met/Fc Chimera (R&D Systems, Minneapolis Minn., catalog # 358-MT-100) in phosphate buffered saline (PBS) and the plates were incubated overnight at room temperature. Wells were washed three times with washing buffer (PBS+0.1% Tween 20), blotting the plates on paper towels between each wash. Nonspecific binding in the wells was blocked by the addition of 250 ul of blocking buffer (3.0% milk (Carnation) in PBS) to each well and incubated at room temperature for two hours.
(§2) The c-Met antibodies were diluted in reagent buffer (PBS, 0.5% BSA, 0.05% Tween-20) and titrations were performed in 96 well polypropylene plates. Biotinylated HGF (0.4 ug/ml) (R&D Systems, biotinylated with Pierce #21335 as per manufacturer's instructions) was added to each well. 50 ul of the dilutions were transferred into the Fluoronunc plates containing human c-Met-Fc fusion protein (R&D Systems, #) and the plates were incubated for two hours at room temperature. The plates were washed three times with wash buffer and blotted onto paper towels. 50 ul of europium-labeled Streptavidin (Wallac Perkin Elmer) diluted 1:1000 in Delfia assay buffer (Wallac Perkin Elmer) was added per well and the plates were incubated for one hour at room temperature. The plates were washed seven times with Delfia wash buffer (Tris buffered saline (TBS) supplemented with 0.1% Tween-20) and blotted onto paper towels. 100 ul Delfia enhancer solution (Wallac Perkin Elmer) was added to each well and the plates incubated for 5 minutes on a plate shaker at room temperature. Plates were read on a fluorescence plate reader and analyzed using GraphPad Prism software (GraphPad Software, San Diego, Calif.).

[2] = target: c-Met (endogenous, on human cell lines 184B5, HCT-116, DU-145 and NCI H441) (human, UniProt P08581 25-1390); assay: cell-based or functional assay
Chain of c-Met (endogenous, on human cell lines 184B5, HCT-116, DU-145 and NCI H441) (P08581 25-1390): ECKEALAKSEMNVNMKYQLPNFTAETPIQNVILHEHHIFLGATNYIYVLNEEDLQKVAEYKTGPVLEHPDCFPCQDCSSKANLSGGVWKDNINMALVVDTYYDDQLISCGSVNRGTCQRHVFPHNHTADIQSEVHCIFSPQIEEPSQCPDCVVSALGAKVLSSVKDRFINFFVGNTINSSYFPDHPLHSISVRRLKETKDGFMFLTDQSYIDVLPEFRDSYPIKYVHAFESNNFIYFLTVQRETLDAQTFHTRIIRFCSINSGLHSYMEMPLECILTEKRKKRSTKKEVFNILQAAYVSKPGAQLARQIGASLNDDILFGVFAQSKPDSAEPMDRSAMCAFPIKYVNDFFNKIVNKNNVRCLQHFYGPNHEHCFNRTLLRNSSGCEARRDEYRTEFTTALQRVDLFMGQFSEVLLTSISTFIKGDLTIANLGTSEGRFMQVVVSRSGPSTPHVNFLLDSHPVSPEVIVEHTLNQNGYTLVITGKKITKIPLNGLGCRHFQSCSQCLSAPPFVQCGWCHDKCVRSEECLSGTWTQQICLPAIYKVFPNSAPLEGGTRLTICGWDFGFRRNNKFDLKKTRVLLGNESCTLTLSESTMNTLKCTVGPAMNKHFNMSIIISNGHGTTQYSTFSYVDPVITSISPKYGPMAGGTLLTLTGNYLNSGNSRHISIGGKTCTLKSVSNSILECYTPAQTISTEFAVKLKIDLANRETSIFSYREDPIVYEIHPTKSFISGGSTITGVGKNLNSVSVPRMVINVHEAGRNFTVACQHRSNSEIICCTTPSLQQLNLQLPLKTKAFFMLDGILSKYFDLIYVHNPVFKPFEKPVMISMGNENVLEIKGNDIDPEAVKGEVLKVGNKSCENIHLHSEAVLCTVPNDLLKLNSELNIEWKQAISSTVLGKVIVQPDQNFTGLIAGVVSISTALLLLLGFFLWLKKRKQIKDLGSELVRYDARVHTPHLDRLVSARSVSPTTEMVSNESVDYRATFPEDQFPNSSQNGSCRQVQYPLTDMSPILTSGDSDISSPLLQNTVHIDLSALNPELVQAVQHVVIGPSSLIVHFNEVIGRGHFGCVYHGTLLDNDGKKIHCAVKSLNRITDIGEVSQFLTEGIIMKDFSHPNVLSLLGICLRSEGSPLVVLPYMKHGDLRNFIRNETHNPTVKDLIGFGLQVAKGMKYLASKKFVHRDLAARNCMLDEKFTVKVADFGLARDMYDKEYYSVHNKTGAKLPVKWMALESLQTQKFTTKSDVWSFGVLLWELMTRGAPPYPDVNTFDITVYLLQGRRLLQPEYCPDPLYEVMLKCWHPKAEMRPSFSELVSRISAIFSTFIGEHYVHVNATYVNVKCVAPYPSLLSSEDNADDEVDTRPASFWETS

[3] = target: T1, c-Met/Fc Chimera (R&D Systems, catalog …); assay: competition ELISA: displacement of biotinylated HGF from plate-coated c-Met/Fc chimera, IgG, n = 2
Description: as §1, §2
(§3) C-Met antibodies 1A3.3.13 (#HB-11894, ATCC Hybridoma) and 5D5.11.6 (#HB-11895, ATCC Hybridoma) were used as positive controls. MOPC-21 (#M-7894, Sigma) was used as an IgG isotype control and HB-94 (#HB-94, ATCC Hybridoma) was converted into a Fab fragment and used as a Fab isotype control. NK4-Elastase is a kringle to kringle 4 fragment resulting from digesting intact HGF purified from S-114 cells with elastase (Date et al., FEBS Lett. 420:1-6 ([…]).

[4] = target: T2, biotinylated c-Met-Fc (R&D Systems, #358-MT-100/CF, 5.1 biotin per c-Met molecule) (human, UniProt P08581 25-932, biotinylated, 5.1 biotin per c-Met molecule (Pierce #21335)); assay: SPR (BIAcore), biotinylated c-Met-Fc captured on streptavidin chip, IgG as analyte, bivalent model
T2 construct: extracellular domain; Captured on a streptavidin (SA) chip for the BIAcore study of the IgGs; Fc part of the bought chimera not given
T2 sequence (P08581 25-932): as the sequence (P08581 25-932, stated change not applied) above
Description: The binding properties (on-rate, off-rate and affinity) of c-Met monoclonal antibodies (IgG or Fab versions) with human c-Met extracellular domain was determined using surface plasmon resonance, or BLAcore, technology. For the binding studies with IgG, a low density (<1 ng/mm2) of c-Met-Fc (R&D Systems, #358-MT-100/CF) containing 5.1 biotin per c-Met molecule (prepared with Pierce #21335 as per manufacturer's instructions) was captured onto a SA chip precoated with Streptavidin (BIAcore Inc.). A streptavidin flow cell without adsorbed c-Met-Fc was used as a control cell for non-specificbinding. The antibody sample to be analyzed was prepared in HEPES buffer (0.15M NaCl, 10 mM HEPES, 3.4 mM EDTA, 0.005% surfactant P-20, pH 7.4) to form a set of solutions varied in concentration from 0.78 nM to 100 nM. The HEPES buffer used as the running solution was set at a flow rate of 50 ul/min. Each sample solution was injected over the two flow cells for three minutes, followed by 5 minutes of dissociation. The flow cells were then regenerated with 4.5M MgCl₂ for one minute to remove the bound antibody for the next cycle of binding study. The net sensorgrams (subtraction of sensorgrams from the negative control flow cell as well as that from the buffer blank) obtained for each set of samples were processed simultaneously in a global fitting using a bivalent binding model of the BIAevaluation software program equipped with the system. The on-rate (Kₐ), off-rate (Kd) and binding affinity (KD) were determined from the fitting with KD equal to kd/kₐ.

[5] = target: T1, c-Met/Fc Chimera (R&D Systems, catalog …); assay: europium (DELFIA) ligand competition ELISA: biotinylated HGF binding to plate-coated c-Met/Fc Chimera, Fab titrated
Description: as §1
(§4) The c-Met antibodies were diluted in reagent buffer (PBS, 0.5% BSA, 0.05% Tween-20) and titrations were performed in 96 well polypropylene plates. Biotinylated HGF (0.4 ug/ml) (R&D Systems, biotinylated with Pierce #21335 as per manufacturer's instructions) was added to each well. 50 ul of the dilutions were transferred into the Fluoronunc plates containing human c-Met-Fc fusion protein (R&D Systems, #) and the plates were incubated for two hours at room temperature. The plates were washed three times with wash buffer and blotted onto paper towels. […] Plates were read on a fluorescence plate reader and analyzed using GraphPad Prism software (GraphPad Software, San Diego, Calif.).

[6] = target: T1, c-Met/Fc Chimera (R&D Systems, catalog …); assay: competition ELISA: displacement of biotinylated HGF from plate-coated c-Met/Fc chimera, Fab, n = 2
Description: as §1, §2, §3

[7] = target: T1, c-Met/Fc Chimera (R&D Systems, catalog …); assay: SPR (BIAcore), c-Met-Fc captured on protein A CM5 chip, Fab as analyte, 1:1 Langmuir model
Description: For the binding study of Fab fragments derived from antibodies of the invention, a high density (>2 ng/mm²) of protein A was first immobilized covalently onto a CM5 sensorchip using EDC/NHS amine coupling chemistry [. The flow cell containing c-Met-Fc captured by the protein A was used as the positive control while a flow cell containing only protein A was used as the negative control. The Fab sample to be analyzed was as above for antibodies to form a set of solutions with concentration ranged from 3.9 nM to 500 nM. The HEPES buffer used as the running solution was set at a flow rate of 50 ul/min. For each cycle of binding study, low density (<1 ng/mm²) of c-Met-Fc was captured first onto the positive flow cell. Each sample solution was then injected over the two flow cells (one negative and one positive in series) for three minutes followed by 5 minutes of dissociation. The flow cells were then regenerated with 4.5M MgCl₂ for one minute to remove the bound c-Met-Fc/Fab complexes for the next cycle of binding. The net sensorgrams (subtraction of sensorgrams from the negative control flow cell as well as that from the buffer blank) obtained from the set of samples were fitted simultaneously in a global fitting using a Langmuir 1:1 binding model of the BIAevaluation program equipped with the system. The on-rate (Kₐ), off-rate (Kd) and binding affinity (KD) were determined from the fitting with KD equal to kd/kₐ.

[8] = target: T1, c-Met/Fc Chimera (R&D Systems, catalog …); assay: competition ELISA: displacement of biotinylated HGF from plate-coated c-Met/Fc chimera; value stands in the Fab column, n = 2
Description: as §1
as §4, with “Calif.). […]” for “Calif.).”

Binder | IC50 (read off the curve) [1] [nM] | scatter assay on DU-145 cells, mean object area, agonist (alone), 100 nM IgG; the smaller the number, the more scattering [2] [mean object area] | scatter assay on DU-145 cells, mean object area, antagonist (w/30 pM HGF), 100 nM IgG; the smaller the number, the more scattering [2] [mean object area] | IC50 [3] [nM] | Kd [4] [nM] | koff [4] [s⁻¹] | kon [4] [M⁻¹ s⁻¹] | IC50 [8] | also measured
B1 | ~0.8 | 459 | 372 | 0.84 |  |  |  |  | 
B2 | ~3 | 318 | 289 | 2.55 | 552 | 0.00845 | 15300 |  | 
B3 | ~0.7 | 285 | 293 | 0.64 | 13 | 0.00112 | 86000 |  | 
B4 |  |  |  |  |  |  |  |  | IC50 (read off the curve) [5]: ~3 nM; IC50 [6]: 24.6 nM; Kd [7]: 13.8 nM; koff [7]: 0.00528 s⁻¹; kon [7]: 383000 M⁻¹ s⁻¹
B5 |  |  |  |  |  |  |  | 900 nM and 551 nM | 
B6 |  |  |  |  |  |  |  | > 125 nM | 
